The values that follow are results of earlier work, collected in paper PMC5983787.

pKd: −log10 of the molar value. Where two headings read alike, the source gives them in different places.

For data set [1], the target named is Cx43 (UniProt P17302).
Data set [2] has as its target Cx43 (UniProt P17302). The source holds these as a separate data set.

UniProt P17302, sequence (P17302 2-382): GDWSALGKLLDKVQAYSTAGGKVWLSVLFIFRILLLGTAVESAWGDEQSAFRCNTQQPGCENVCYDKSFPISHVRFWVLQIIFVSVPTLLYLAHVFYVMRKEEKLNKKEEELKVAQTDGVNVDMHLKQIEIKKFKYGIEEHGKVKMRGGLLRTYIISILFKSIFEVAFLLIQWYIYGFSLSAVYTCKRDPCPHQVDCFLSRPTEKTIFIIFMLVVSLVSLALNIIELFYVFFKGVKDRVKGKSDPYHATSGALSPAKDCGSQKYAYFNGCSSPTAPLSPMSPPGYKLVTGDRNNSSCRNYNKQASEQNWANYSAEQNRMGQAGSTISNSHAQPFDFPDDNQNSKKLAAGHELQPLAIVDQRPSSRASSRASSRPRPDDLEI

Nedd4 (from UniProt P46934): the pKd is 2.97 in the data set with Cx43 [1] and 3.23 in the data set with Cx43 [2].
